Numbered stars: 1 amine (or outer) side, 2 acyl side, 3 side chain; on linkers, the order of the positions; unused ones are H or OH. Bridge positions count the residues as written; N and C are the ends. Side chains are listed from the residue outwards. Ends that are not written are not given here. * marks the point of attachment. C20 diacid = O=C(O)CCCCCCCCCCCCCCCCCCC(=O)*; γGlu = O=C(O)[C@H](CCC(=O)[*:2])N[*:1]; AEEA = NCCOCCOCC(=O)O
T1: rat calcitonin receptor (rat, UniProt P32214 25-516)
T1 construct: whole, on cells; Used as membranes prepared from the transfected cells; also called rCTR; rCT
T1 sequence (looked up): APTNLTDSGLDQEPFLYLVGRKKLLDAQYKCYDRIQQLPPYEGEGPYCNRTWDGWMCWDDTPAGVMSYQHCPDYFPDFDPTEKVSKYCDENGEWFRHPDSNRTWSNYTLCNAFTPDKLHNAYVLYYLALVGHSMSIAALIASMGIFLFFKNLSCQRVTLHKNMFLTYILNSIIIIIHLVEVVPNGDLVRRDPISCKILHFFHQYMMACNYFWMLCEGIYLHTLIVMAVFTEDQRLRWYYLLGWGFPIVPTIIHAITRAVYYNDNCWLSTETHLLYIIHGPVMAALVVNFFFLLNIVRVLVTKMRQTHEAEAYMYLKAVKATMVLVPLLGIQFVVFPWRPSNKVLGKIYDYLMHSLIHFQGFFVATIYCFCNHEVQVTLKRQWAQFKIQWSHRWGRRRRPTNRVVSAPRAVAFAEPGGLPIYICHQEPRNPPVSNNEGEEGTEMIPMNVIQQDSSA

T2: rat amylin receptor (rat calcitonin receptor with rat RAMP 3) (rat, UniProt P32214 25-516; Q9JJ73 23-147)
T2 construct: whole, on cells; Used as membranes prepared from the transfected cells; also called rAmylin-R; rAmylin
T2 sequence (looked up) 1: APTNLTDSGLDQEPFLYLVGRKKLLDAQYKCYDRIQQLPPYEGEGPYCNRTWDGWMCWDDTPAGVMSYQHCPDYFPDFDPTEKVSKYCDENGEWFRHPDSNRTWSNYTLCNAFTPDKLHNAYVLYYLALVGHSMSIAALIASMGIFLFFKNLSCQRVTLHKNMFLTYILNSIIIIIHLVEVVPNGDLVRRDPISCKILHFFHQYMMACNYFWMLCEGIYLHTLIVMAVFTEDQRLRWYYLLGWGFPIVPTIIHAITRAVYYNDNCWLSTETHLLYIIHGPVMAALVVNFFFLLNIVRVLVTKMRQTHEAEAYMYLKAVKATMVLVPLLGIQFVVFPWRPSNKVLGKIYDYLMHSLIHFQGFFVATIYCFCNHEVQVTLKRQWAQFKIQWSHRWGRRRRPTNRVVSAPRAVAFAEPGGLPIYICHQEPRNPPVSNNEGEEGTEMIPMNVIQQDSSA
T2 sequence (looked up) 2: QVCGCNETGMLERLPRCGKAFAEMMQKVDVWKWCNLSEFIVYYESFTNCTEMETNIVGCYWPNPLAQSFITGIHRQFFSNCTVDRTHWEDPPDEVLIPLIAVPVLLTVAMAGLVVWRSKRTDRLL

T3: human calcitonin receptor (human, UniProt P30988 25-474)
T3 construct: whole, on cells; Used as membranes prepared from the transfected cells; also called hCTR; hCT
T3 sequence (looked up): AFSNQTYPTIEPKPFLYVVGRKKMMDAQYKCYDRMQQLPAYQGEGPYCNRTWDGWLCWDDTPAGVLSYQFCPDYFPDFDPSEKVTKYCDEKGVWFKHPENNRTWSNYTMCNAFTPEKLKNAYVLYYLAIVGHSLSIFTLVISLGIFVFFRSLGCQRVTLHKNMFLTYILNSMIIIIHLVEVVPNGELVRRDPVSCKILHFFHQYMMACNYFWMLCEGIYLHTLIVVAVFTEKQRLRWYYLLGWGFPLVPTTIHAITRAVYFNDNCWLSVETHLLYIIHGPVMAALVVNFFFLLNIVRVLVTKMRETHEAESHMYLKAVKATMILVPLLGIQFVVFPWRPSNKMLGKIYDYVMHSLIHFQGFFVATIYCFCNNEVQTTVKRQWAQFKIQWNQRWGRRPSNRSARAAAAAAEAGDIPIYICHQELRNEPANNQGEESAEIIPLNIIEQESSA


Assays:
[1] = target: T1, rat calcitonin receptor; assay: ratio of binding IC50 at rat calcitonin receptor to IC50 at rat amylin receptor (reference)
[2] = target: T2, rat amylin receptor (rat calcitonin …); assay: SPA competition with 125I-rat amylin, membranes with rat calcitonin receptor + rat RAMP3 (Assay VI)
[3] = target: T1, rat calcitonin receptor; assay: SPA competition with 125I-calcitonin, membranes with rat calcitonin receptor (Assay VIII)
[4] = target: T3, human calcitonin receptor; assay: ratio of binding IC50 at human calcitonin receptor to IC50 at human amylin receptor (reference)
In short: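 Scintillation proximity competition binding on cell membranes at 35 ng/μL with SPA beads, in 50 mM Hepes pH 7.4, 1 mM CaCl2, 5 mM MgCl₂, 0.1% OA, 0.02% Tween20. Incubated 120 min at 25° C with shaking. IC₅₀ from one-site competition fit.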

Ratio rCT/rAmylin binding [1]	IC50 [2] [µM]	IC50 [3] [µM]	Ratio hCT/hAmylin binding [4]	Binder
71.3	0.00545	0.389	63.4	K([AEEA-AEEA-γGlu-C20 diacid])CNTATCATQRLANFLRHSSPNFGAIPSSTNVGRNTY-NH2 (disulfide 2-7; N-terminus assumed; SMILES CC[C@H](C)[C@H](NC(=O)[C@H](C)NC(=O)CNC(=O)[C@H](Cc1ccccc1)NC(=O)[C@H](CC(N)=O)NC(=O)[C@@H]1CCCN1C(=O)[C@H](CO)NC(=O)[C@H](CO)NC(=O)[C@H](Cc1c[nH]cn1)NC(=O)[C@H](CCCNC(=N)N)NC(=O)[C@H](CC(C)C)NC(=O)[C@H](Cc1ccccc1)NC(=O)[C@H](CC(N)=O)NC(=O)[C@H](C)NC(=O)[C@H](CC(C)C)NC(=O)[C@H](CCCNC(=N)N)NC(=O)[C@H](CCC(N)=O)NC(=O)[C@@H](NC(=O)[C@H](C)NC(=O)[C@@H]1CSSC[C@H](NC(=O)[C@@H](N)CCCCNC(=O)COCCOCCNC(=O)COCCOCCNC(=O)CC[C@H](NC(=O)CCCCCCCCCCCCCCCCCCC(=O)O)C(=O)O)C(=O)N[C@@H](CC(N)=O)C(=O)N[C@@H]([C@@H](C)O)C(=O)N[C@@H](C)C(=O)N[C@@H]([C@@H](C)O)C(=O)N1)[C@@H](C)O)C(=O)N1CCC[C@H]1C(=O)N[C@@H](CO)C(=O)N[C@@H](CO)C(=O)N[C@H](C(=O)N[C@@H](CC(N)=O)C(=O)N[C@H](C(=O)NCC(=O)N[C@@H](CCCNC(=N)N)C(=O)N[C@@H](CC(N)=O)C(=O)N[C@H](C(=O)N[C@@H](Cc1ccc(O)cc1)C(N)=O)[C@@H](C)O)C(C)C)[C@@H](C)O, Analogue of human amylin; disulfide and C-terminal amide as told for h-amylin; also called compound 95)
118	0.000529	0.0622	79.6	K([AEEA-AEEA-γGlu-C20 diacid])CNTATCATQRLANFLRHSSPNFGAIPSSTPVGSNTY-NH2 (disulfide 2-7; N-terminus assumed; SMILES CC[C@H](C)[C@H](NC(=O)[C@H](C)NC(=O)CNC(=O)[C@H](Cc1ccccc1)NC(=O)[C@H](CC(N)=O)NC(=O)[C@@H]1CCCN1C(=O)[C@H](CO)NC(=O)[C@H](CO)NC(=O)[C@H](Cc1c[nH]cn1)NC(=O)[C@H](CCCNC(=N)N)NC(=O)[C@H](CC(C)C)NC(=O)[C@H](Cc1ccccc1)NC(=O)[C@H](CC(N)=O)NC(=O)[C@H](C)NC(=O)[C@H](CC(C)C)NC(=O)[C@H](CCCNC(=N)N)NC(=O)[C@H](CCC(N)=O)NC(=O)[C@@H](NC(=O)[C@H](C)NC(=O)[C@@H]1CSSC[C@H](NC(=O)[C@@H](N)CCCCNC(=O)COCCOCCNC(=O)COCCOCCNC(=O)CC[C@H](NC(=O)CCCCCCCCCCCCCCCCCCC(=O)O)C(=O)O)C(=O)N[C@@H](CC(N)=O)C(=O)N[C@@H]([C@@H](C)O)C(=O)N[C@@H](C)C(=O)N[C@@H]([C@@H](C)O)C(=O)N1)[C@@H](C)O)C(=O)N1CCC[C@H]1C(=O)N[C@@H](CO)C(=O)N[C@@H](CO)C(=O)N[C@H](C(=O)N1CCC[C@H]1C(=O)N[C@H](C(=O)NCC(=O)N[C@@H](CO)C(=O)N[C@@H](CC(N)=O)C(=O)N[C@H](C(=O)N[C@@H](Cc1ccc(O)cc1)C(N)=O)[C@@H](C)O)C(C)C)[C@@H](C)O, Analogue of human amylin; disulfide and C-terminal amide as told for h-amylin; also called compound 96)
71.1	0.00224	0.159	104	K([AEEA-AEEA-γGlu-C20 diacid])CNTATCATQRLANFLRHSSPNFGAIPSSTNVGHNTY-NH2 (disulfide 2-7; N-terminus assumed; SMILES CC[C@H](C)[C@H](NC(=O)[C@H](C)NC(=O)CNC(=O)[C@H](Cc1ccccc1)NC(=O)[C@H](CC(N)=O)NC(=O)[C@@H]1CCCN1C(=O)[C@H](CO)NC(=O)[C@H](CO)NC(=O)[C@H](Cc1c[nH]cn1)NC(=O)[C@H](CCCNC(=N)N)NC(=O)[C@H](CC(C)C)NC(=O)[C@H](Cc1ccccc1)NC(=O)[C@H](CC(N)=O)NC(=O)[C@H](C)NC(=O)[C@H](CC(C)C)NC(=O)[C@H](CCCNC(=N)N)NC(=O)[C@H](CCC(N)=O)NC(=O)[C@@H](NC(=O)[C@H](C)NC(=O)[C@@H]1CSSC[C@H](NC(=O)[C@@H](N)CCCCNC(=O)COCCOCCNC(=O)COCCOCCNC(=O)CC[C@H](NC(=O)CCCCCCCCCCCCCCCCCCC(=O)O)C(=O)O)C(=O)N[C@@H](CC(N)=O)C(=O)N[C@@H]([C@@H](C)O)C(=O)N[C@@H](C)C(=O)N[C@@H]([C@@H](C)O)C(=O)N1)[C@@H](C)O)C(=O)N1CCC[C@H]1C(=O)N[C@@H](CO)C(=O)N[C@@H](CO)C(=O)N[C@H](C(=O)N[C@@H](CC(N)=O)C(=O)N[C@H](C(=O)NCC(=O)N[C@@H](Cc1c[nH]cn1)C(=O)N[C@@H](CC(N)=O)C(=O)N[C@H](C(=O)N[C@@H](Cc1ccc(O)cc1)C(N)=O)[C@@H](C)O)C(C)C)[C@@H](C)O, Analogue of human amylin; disulfide and C-terminal amide as told for h-amylin; also called compound 97)
176	0.000137	0.0241	74.1	K([AEEA-AEEA-γGlu-C20 diacid])CNTATCATQRLANFLRHSSPNFGAIPSSTNVGPNTY-NH2 (disulfide 2-7; N-terminus assumed; SMILES CC[C@H](C)[C@H](NC(=O)[C@H](C)NC(=O)CNC(=O)[C@H](Cc1ccccc1)NC(=O)[C@H](CC(N)=O)NC(=O)[C@@H]1CCCN1C(=O)[C@H](CO)NC(=O)[C@H](CO)NC(=O)[C@H](Cc1c[nH]cn1)NC(=O)[C@H](CCCNC(=N)N)NC(=O)[C@H](CC(C)C)NC(=O)[C@H](Cc1ccccc1)NC(=O)[C@H](CC(N)=O)NC(=O)[C@H](C)NC(=O)[C@H](CC(C)C)NC(=O)[C@H](CCCNC(=N)N)NC(=O)[C@H](CCC(N)=O)NC(=O)[C@@H](NC(=O)[C@H](C)NC(=O)[C@@H]1CSSC[C@H](NC(=O)[C@@H](N)CCCCNC(=O)COCCOCCNC(=O)COCCOCCNC(=O)CC[C@H](NC(=O)CCCCCCCCCCCCCCCCCCC(=O)O)C(=O)O)C(=O)N[C@@H](CC(N)=O)C(=O)N[C@@H]([C@@H](C)O)C(=O)N[C@@H](C)C(=O)N[C@@H]([C@@H](C)O)C(=O)N1)[C@@H](C)O)C(=O)N1CCC[C@H]1C(=O)N[C@@H](CO)C(=O)N[C@@H](CO)C(=O)N[C@H](C(=O)N[C@@H](CC(N)=O)C(=O)N[C@H](C(=O)NCC(=O)N1CCC[C@H]1C(=O)N[C@@H](CC(N)=O)C(=O)N[C@H](C(=O)N[C@@H](Cc1ccc(O)cc1)C(N)=O)[C@@H](C)O)C(C)C)[C@@H](C)O, Analogue of human amylin; disulfide and C-terminal amide as told for h-amylin; also called compound 98)
280	0.000397	0.111	46.3	K([γGlu-C20 diacid])CNTATCATQRLAAFLRHSSPNFGAIPSSTNVGPNTY-NH2 (disulfide 2-7; N-terminus assumed; SMILES CC[C@H](C)[C@H](NC(=O)[C@H](C)NC(=O)CNC(=O)[C@H](Cc1ccccc1)NC(=O)[C@H](CC(N)=O)NC(=O)[C@@H]1CCCN1C(=O)[C@H](CO)NC(=O)[C@H](CO)NC(=O)[C@H](Cc1c[nH]cn1)NC(=O)[C@H](CCCNC(=N)N)NC(=O)[C@H](CC(C)C)NC(=O)[C@H](Cc1ccccc1)NC(=O)[C@H](C)NC(=O)[C@H](C)NC(=O)[C@H](CC(C)C)NC(=O)[C@H](CCCNC(=N)N)NC(=O)[C@H](CCC(N)=O)NC(=O)[C@@H](NC(=O)[C@H](C)NC(=O)[C@@H]1CSSC[C@H](NC(=O)[C@@H](N)CCCCNC(=O)CC[C@H](NC(=O)CCCCCCCCCCCCCCCCCCC(=O)O)C(=O)O)C(=O)N[C@@H](CC(N)=O)C(=O)N[C@@H]([C@@H](C)O)C(=O)N[C@@H](C)C(=O)N[C@@H]([C@@H](C)O)C(=O)N1)[C@@H](C)O)C(=O)N1CCC[C@H]1C(=O)N[C@@H](CO)C(=O)N[C@@H](CO)C(=O)N[C@H](C(=O)N[C@@H](CC(N)=O)C(=O)N[C@H](C(=O)NCC(=O)N1CCC[C@H]1C(=O)N[C@@H](CC(N)=O)C(=O)N[C@H](C(=O)N[C@@H](Cc1ccc(O)cc1)C(N)=O)[C@@H](C)O)C(C)C)[C@@H](C)O, Analogue of human amylin; disulfide and C-terminal amide as told for h-amylin; also called compound 94)

Reference: patent publication US20140087995A1 (published 2014)
